The supplement of paper PMC10126150
± gives the standard deviation of the averaged measurements.

System: ATP
Experiment: switch fluorescence ratio, 500 uM ATP over buffer (Cy3 cluster intensity, sum of 5 cycles each) (fold (ratio)); higher = stronger signal-on switching upon ATP binding; sequences stand for … in TCGTCGGCAGCGTCAGATGTGTATAAGAGACAGTTTTTTTTTTTTTTTTTTTTTTTTT…TC
Settings: aptamer strand: ATP DNA aptamer (quencher-CACCTGGGGGAGTATTGCGGAGGAAGG + anchor), 100 nM annealed; ATP concentration: 500 uM
Summary of the method: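 Switching-strand clusters labelled with Cy3 on a modified Illumina MiSeq flow-cell were annealed to 100 nM quencher-labelled ATP aptamer, imaged in selection buffer, and re-imaged after 15 min with 500 uM ATP at 22 °C. This was done over five cycles with NaOH stripping and re-annealing in between. The fluorescence ratio is summed target-cycle over summed buffer-cycle Cy3 intensity per cluster, averaged per switch-domain sequence, excluding clusters outside 100-1000 RFU.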
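Further: ATP exposure 15 min at 22 °C before imaging.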

Sequence	switch fluorescence ratio
GATGAACGTC	1.11 ± 0.19
GATGAAGCGA	1.19 ± 0.02
GATGAAGGGA	0.979 ± 0.013
GATGAATGGG	0.996 ± 0.014
GATGACGAAT	1.023 ± 0.0047
GATGACGTCC	1.04 ± 0.069
GATGACTTGT	0.972 ± 0.011
GATGAGAGGT	0.999 ± 0.015
GATGAGGAAG	1.01 ± 0.06
GATGAGGGTA	0.976 ± 0.034
GATGAGGGTG	1.06 ± 0.015
GATGAGTTG	1.01 ± 0.012
GATGATAGCG	0.999 ± 0.025
GATGATGGGC	0.996 ± 0.035
GATGCACCGA	1.06 ± 0.036
GATGCATGGC	1.12 ± 0.035
GATGCTACTG	1.04 ± 0.016
GATGCTGTGC	1.0328 ± 0.00033
GATGCTTCTT	0.985 ± 0.019
GATGCTTGTG	0.978 ± 0.011
GATGGAAAGG	0.998 ± 0.029
GATGGAAGGG	0.974 ± 0.023
GATGGAGGTG	0.997 ± 0.011
GATGGATAGG	0.9804 ± 0.0043
GATGGATGGG	1.019 ± 0.0069

Sequence	switch fluorescence ratio
GATGGATTAG	0.982 ± 0.015
GATGGCGGAG	1.03 ± 0.042
GATGGCGTGG	0.964 ± 0.038
GATGGCTACG	1.01 ± 0.024
GATGGGACAA	1.008 ± 0.0027
GATGGGGCTG	1.02 ± 0.062
GATGGGGGAT	1.01 ± 0.028
GATGGGGGGG	1 ± 0.028
GATGGGTTTT	0.997 ± 0.062
GATGGTAGTT	1.012 ± 0.0024
GATGGTCGTT	1.011 ± 0.0079
GATGGTGGGG	0.977 ± 0.035
GATGGTGGTT	1.02 ± 0.044
GATGGTTTCC	1.02 ± 0.0017
GATGGTTTGT	0.988 ± 0.039
GATGTAACTT	1.012 ± 0.0061
GATGTACCCC	1.114 ± 0.0023
GATGTAGCTT	1.029 ± 0.0033
GATGTAGTAT	0.982 ± 0.011
GATGTAGTGG	1.029 ± 0.0055
GATGTCAGGG	1.05 ± 0.021
GATGTCATTT	0.987 ± 0.024
GATGTCCCCA	0.959 ± 0.013
GATGTCTAGC	0.9894 ± 0.0065
GATGTGGTAA	1.01 ± 0.012

Sequence	switch fluorescence ratio
GATGTGGTGA	0.9929 ± 0.0061
GATGTGTTGG	0.9595 ± 0.0048
GATGTTAAGA	0.998 ± 0.046
GATGTTAGTA	0.973 ± 0.018
GATGTTGAAT	0.998 ± 0.021
GATGTTGATG	0.976 ± 0.014
GATTAAGAGC	0.999 ± 0.044
GATTACTACC	1.21 ± 0.04
GATTAGGCGA	1.023 ± 0.0064
GATTAGTGTG	0.995 ± 0.05
GATTATAAGA	0.989 ± 0.033
GATTATAGAT	1 ± 0.015
GATTATCGTT	1.03 ± 0.027
GATTATGCGC	1.03 ± 0.037
GATTATGCTC	1.01 ± 0.015
GATTATGCTG	1.17 ± 0.06
GATTATGGCA	0.9752 ± 0.0066
GATTATTGCT	0.988 ± 0.037
GATTCAAAGG	0.9911 ± 0.004
GATTCACTAA	0.989 ± 0.054
GATTCAGACA	0.963 ± 0.015
GATTCAGCGC	0.99 ± 0.03
GATTCCATAT	1 ± 0.03
GATTCGCGGC	1.16 ± 0.02
GATTCGCTAA	1.12 ± 0.13

Sequence	switch fluorescence ratio
GATTCTGGTT	0.94 ± 0.029
GATTCTTGAG	1.01 ± 0.032
GATTGAAAGA	0.986 ± 0.026
GATTGAAAGC	0.962 ± 0.045
GATTGAAGGG	0.979 ± 0.032
GATTGACAGG	1.04 ± 0.03
GATTGACCAT	1.041 ± 0.0099
GATTGAGCGT	0.996 ± 0.017
GATTGATTGC	1 ± 0.033
GATTGATTGT	0.9867 ± 0.0061
GATTGCAGAT	1.02 ± 0.034
GATTGGAAAG	1.0069 ± 0.00042
GATTGGAGTC	1.008 ± 0.0045
GATTGGCCCG	1.11 ± 0.13
GATTGGGGAT	0.992 ± 0.02
GATTGGGGGA	0.984 ± 0.036
GATTGGGTCA	1 ± 0.012
GATTGGGTGG	1 ± 0.017
GATTGGGTTG	0.981 ± 0.045
GATTGGTGTT	0.956 ± 0.025
GATTGTAATC	0.99 ± 0.0063
GATTGTATGG	1.02 ± 0.025
GATTGTCCTT	0.9956 ± 0.0048
GATTGTGGAG	1.01 ± 0.018
GATTGTTTTT	0.997 ± 0.044

Sequence	switch fluorescence ratio
GATTTAACGA	0.985 ± 0.014
GATTTAAGAT	1.01 ± 0.029
GATTTAATGG	1 ± 0.021
GATTTAATTT	1.001 ± 0.0063
GATTTACCAG	1.03 ± 0.027
GATTTAGTTA	1.01 ± 0.027
GATTTATCGC	1 ± 0.046
GATTTATGAG	0.9668 ± 0.0067
GATTTATTTT	0.994 ± 0.017
GATTTCAAAT	1.02 ± 0.023
GATTTCATTT	1.01 ± 0.04
GATTTGAAGG	1.01 ± 0.035
GATTTGACG	1.04 ± 0.056
GATTTGATGT	1 ± 0.03
GATTTGATTG	1.002 ± 0.0033
GATTTGCTAG	0.997 ± 0.023
GATTTTCACT	0.9903 ± 0.0092
GATTTTCCTT	1.01 ± 0.027
GATTTTGAGC	0.9986 ± 0.0048
GATTTTGCAT	1 ± 0.028
GATTTTGGCT	0.9969 ± 0.0019
GATTTTTACT	1.02 ± 0.024
GATTTTTATA	0.969 ± 0.028
GATTTTTATG	0.977 ± 0.011
GATTTTTGAG	0.99 ± 0.017

Sequence	switch fluorescence ratio
GATTTTTGGA	0.968 ± 0.03
GATTTTTGGG	1.01 ± 0.047
GATTTTTGTT	1.01 ± 0.034
GATTTTTTGA	1.01 ± 0.011
GCAAAAAAAT	1.04 ± 0.025
GCAAAAATGT	1 ± 0.029
GCAAAAGGGG	0.977 ± 0.027
GCAAAGAGGG	1.04 ± 0.012
GCAAAGTCTG	0.984 ± 0.046
GCAAATAAGT	1.02 ± 0.038
GCAAATATTG	1.01 ± 0.018
GCAAGACAAG	1.05 ± 0.036
GCAAGATTTC	1.04 ± 0.013
GCAAGGGGTG	1.1 ± 0.065
GCAAGTTCAA	1.01 ± 0.031
GCAATAATTT	2.83 ± 0.52
GCAATAGACT	1.51 ± 0.04
GCAATATGGG	1.84 ± 0.2
GCAATCAATA	1.02 ± 0.015
GCAATCAGAA	1.04 ± 0.035
GCAATCGAGT	1.6 ± 0.04
GCAATCTGGT	1.11 ± 0.026
GCAATTCCCG	2.17 ± 0.049
GCACCAAAAG	0.973 ± 0.028
GCACCAAGAA	1.03 ± 0.014

Sequence	switch fluorescence ratio
GCACGCGGCT	1.02 ± 0.019
GCACGGGCAT	1.01 ± 0.035
GCACGGGGAT	1.02 ± 0.033
GCACGTCGAA	1.08 ± 0.032
GCACTAGGGG	1.09 ± 0.015
GCACTATAGG	0.999 ± 0.011
GCACTTTTTG	0.99 ± 0.049
GCAGAAGTAC	2.37 ± 0.075
GCAGAGGAAC	1.03 ± 0.012
GCAGAGTGGA	0.9976 ± 0.003
GCAGATCGGT	0.967 ± 0.019
GCAGATCGTG	1.02 ± 0.026
GCAGATTACG	1.01 ± 0.058
GCAGCAAGCG	1.64 ± 0.028
GCAGCAGACG	1.2 ± 0.076
GCAGCAGCTT	1.01 ± 0.039
GCAGCCAAGC	1.14 ± 0.028
GCAGCTAGTA	1.044 ± 0.0045
GCAGCTGGTA	1.05 ± 0.024
GCAGCTGTAT	1.08 ± 0.014
GCAGGAATGT	1.0036 ± 0.00065
GCAGGAGCGG	0.998 ± 0.0094
GCAGGCGGGC	0.991 ± 0.014
GCAGGCGTCA	1.04 ± 0.015
GCAGGCGTTG	0.995 ± 0.013

Sequence	switch fluorescence ratio
GCAGGGAGTT	0.966 ± 0.029
GCAGGGGGAG	1.02 ± 0.0081
GCAGGGGTTA	1.28 ± 0.43
GCAGGGGTTG	1.03 ± 0.071
GCAGGTATTG	1.02 ± 0.012
GCAGGTGTGC	1.13 ± 0.082
GCAGTACGGC	1.05 ± 0.033
GCAGTCGCAA	1.1 ± 0.043
GCAGTCTGTG	0.98 ± 0.03
GCAGTGGGGT	1.01 ± 0.022
GCAGTGGGTC	0.995 ± 0.0057
GCAGTTATTT	0.966 ± 0.026
GCAGTTGGGG	0.998 ± 0.032
GCATAAATAG	1.02 ± 0.018
GCATAACATT	1.01 ± 0.014
GCATAAGAAA	1.03 ± 0.018
GCATAAGCTC	1.06 ± 0.062
GCATAAGGGC	0.959 ± 0.033
GCATATCTGT	1.0296 ± 0.00023
GCATCAGGAG	1.05 ± 0.021
GCATCCGGGA	0.956 ± 0.039
GCATGAAGGT	1 ± 0.014
GCATGAGCGG	1.01 ± 0.013
GCATGAGGAT	1.01 ± 0.06
GCATGAGGGA	0.993 ± 0.019
